Each block holds one molecule with its values, some of them ahead of it.
How the values were obtained:
[1] = target: lipidated recombinant human tissue factor (TF) (UniProt P13726); test: cell-based or functional assay
Target sequence in this assay (P13726 33-295 limits assumed): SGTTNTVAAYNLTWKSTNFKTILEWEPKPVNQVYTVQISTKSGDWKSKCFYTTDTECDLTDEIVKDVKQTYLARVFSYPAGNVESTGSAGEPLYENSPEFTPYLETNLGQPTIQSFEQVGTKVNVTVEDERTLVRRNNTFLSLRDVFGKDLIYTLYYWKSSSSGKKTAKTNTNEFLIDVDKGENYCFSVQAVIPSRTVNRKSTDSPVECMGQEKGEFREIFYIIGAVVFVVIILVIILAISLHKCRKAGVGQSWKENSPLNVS

[2] = target: lipidated recombinant human tissue factor (TF) (UniProt P13726)
Target sequence in this assay (P13726 33-295): as the sequence (P13726 33-295 limits assumed) above

[3] = target: lipidated recombinant human tissue factor (TF) (human, UniProt P13726 33-295, limits assumed); test: cell-based or functional assay

- factor Xa generation with conditioned medium of HEK-293 cells (chromogenic substrate; TF, factor VIIa, factor X) [1]: 2 fold
Molecule: enzymatically inactive heparanase (double mutant), mutated at Glu225 and Glu343 (from UniProt Q9Y251 36-543) (enzyme)

- factor Xa generation with conditioned medium of HEK-293 cells (chromogenic substrate; TF, factor VIIa, factor X) [1]: 2 fold
Molecule: full-length human heparanase (65 kDa) (from UniProt Q9Y251 36-543) (enzyme)

Molecule: recombinant active heparanase GS3 (single chain GS3 active heparanase gene construct comprising the 8 and 50 kDa heparanase subunits)
- factor Xa level (chromogenic substrate; purified TF, factor VIIa, factor X) [2]: Addition of heparanase induced 2 folds increase in Xa level
- thrombin generation (chromogenic substrate; TF, factor VIIa, factor X, prothrombin) [2]: Note a 3-fold increase in coagulation activity in the presence of heparanase.

- factor Xa generation at reduced TF levels (absorbance at 405 nm) [3]: 3 fold
- factor Xa generation with conditioned medium of HEK-293 cells (chromogenic substrate; TF, factor VIIa, factor X) [3]: 2 fold
B1: recombinant active heparanase GS3 (single chain GS3 active heparanase gene construct comprising the 8 and 50 kDa heparanase subunits) (enzyme)
chain: QDVVDLDFFTQEPLHLVSPSFLSVTIDANLATDPRFLILLGSPKLRTLARGLSPAYLRFGGTKTDFLIFDPKKESTFEERSYWQSQVNQDICKYGSIPPDVEEKLRLEWPYQEQLLLREHYQKKFKNSTYSRSSVDVLYTFANCSGLDLIFGLNALLRTADLQWNSSNAQLLLDYCSSKGYNISWELGNEPNSFLKKADIFINGSQLGEDFIQLHKLLRKSTFKNAKLYGPDVGQPRRKTAKMLKSFLKAGGEVIDSVTWHHYYLNGRTATKEDFLNPDVLDIFISSVQKVFQVVESTRPGKKVWLGETSSAYGGGAPLLSDTFAAGFMWLDKLGLSARMGIEVVMRQVFFGAGNYHLVDENFDPLPDYWLSLLFKKLVGTKVLMASVQGSKRRKLRVYLHCTNTDNPRYKEGDLTLYAINLHNVTKYLRLPYPFSNKQVDKYLLRPLGPHGLLSKSVQLNGLTLKMVDDQTLPPLMEKPLRPGSSLGLPAFSYSFFVIRNAKVAACI
